To fix the notation:
T1: IL-11 (UniProt P20809 22-199, limits assumed)
T1 construct: also called IL-11 protein; IL-11 antigen
T1 sequence (looked up): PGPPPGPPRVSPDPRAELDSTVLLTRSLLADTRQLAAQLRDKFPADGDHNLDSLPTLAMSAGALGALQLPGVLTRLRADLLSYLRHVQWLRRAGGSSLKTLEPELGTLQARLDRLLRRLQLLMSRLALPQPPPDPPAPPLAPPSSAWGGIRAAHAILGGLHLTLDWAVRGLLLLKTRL

B1: 1A10 (scFv)
scFv: QVQLVQSGAEVKKPGASVKVSCKASDYTFTNYWLGWVRQAPGQGLEWMGHIYPGGGYTNYNEKFKGRVTMTRDTSTSTVYMELSSLRSEDTAVYYCARVSSGNDALDFWGQGTLVTVSSGGGGSGGGGSGGGGSEIVLTQSPATLSLSPGERATLSCRASESVDEYGISFMNWFQQKPGQAPRLLIYSASNQGSGIPARFSGSGSGTDFTLTISSLEPEDFAVYFCQQSKEQPWTFGGGTKLEIK
B2: “VH1+VL3”-scFv (scFv)
scFv: QVQLVQSGAEVKKPGASVKVSCKASDYTFTNYWLGWVRQAPGQGLEWMGHIYPGGGYTNYNEKFKGRVTMTRDTSTSTVYMELSSLRSEDTAVYYCARVRSGNDALDFWGQGTLVTVSSGGGGSGGGGSGGGGSEIVLTQSPATLSLSPGERATLSCRASESVDEYGISFMNWFQQKPGQAPRLLIYSASNQGSGIPARFSGSGSGTDFTLTISSLEPEDFAVYFCQQSKEVPWTFGGGTKLEIK
B3: “VH4+VL1”-scFv (scFv)
scFv: QVQLVQSGAEVKKPGASVKVSCKASDYTFTNYWLGWVRQAPGHGLEWIGHIYPGGGYTNYNEKFKGRATLTADTSTSTVYMELSSLRSEDTAVYFCARVRSGNDALDFWGQGTLVTVSSGGGGSGGGGSGGGGSEIVLTQSPATLSLSPGERATLSCRASESVDEYGISFMNWYQQKPGQAPRLLIYSASNQGSGIPARFSGSGSGTDFTLTISSLEPEDFAVYYCQQSKEVPWTFGGGTKLEIK
B4: “VH1+VL2”-scFv (scFv)
scFv: QVQLVQSGAEVKKPGASVKVSCKASDYTFTNYWLGWVRQAPGQGLEWMGHIYPGGGYTNYNEKFKGRVTMTRDTSTSTVYMELSSLRSEDTAVYYCARVRSGNDALDFWGQGTLVTVSSGGGGSGGGGSGGGGSEIVLTQSPATLSLSPGERATLSCRASESVDEYGISFMNWYQQKPGQAPRLLIYSASNQGSGIPARFSGSGSGTDFTLTISSLEPEDFAVYFCQQSKEVPWTFGGGTKLEIK
B5: “VH4+VL4”-scFv (scFv)
scFv: QVQLVQSGAEVKKPGASVKVSCKASDYTFTNYWLGWVRQAPGHGLEWIGHIYPGGGYTNYNEKFKGRATLTADTSTSTVYMELSSLRSEDTAVYFCARVRSGNDALDFWGQGTLVTVSSGGGGSGGGGSGGGGSEIVLTQSPATLSLSPGERATLSCRASESVDEYGISFMNWFQQKPGQAPRLLIYSASNQGSGIPARFSGSGSGTDFTLTISSLEPEDFAMYFCQQSKEVPWTFGGGTKLEIK
B6: “VH3+VL3”-scFv (scFv)
scFv: QVQLVQSGAEVKKPGASVKVSCKASDYTFTNYWLGWVRQAPGQGLEWIGHIYPGGGYTNYNEKFKGRATLTADTSTSTVYMELSSLRSEDTAVYFCARVRSGNDALDFWGQGTLVTVSSGGGGSGGGGSGGGGSEIVLTQSPATLSLSPGERATLSCRASESVDEYGISFMNWFQQKPGQAPRLLIYSASNQGSGIPARFSGSGSGTDFTLTISSLEPEDFAVYFCQQSKEVPWTFGGGTKLEIK
B7: “VH4+VL3”-scFv (scFv)
scFv: QVQLVQSGAEVKKPGASVKVSCKASDYTFTNYWLGWVRQAPGHGLEWIGHIYPGGGYTNYNEKFKGRATLTADTSTSTVYMELSSLRSEDTAVYFCARVRSGNDALDFWGQGTLVTVSSGGGGSGGGGSGGGGSEIVLTQSPATLSLSPGERATLSCRASESVDEYGISFMNWFQQKPGQAPRLLIYSASNQGSGIPARFSGSGSGTDFTLTISSLEPEDFAVYFCQQSKEVPWTFGGGTKLEIK
B8: “VH2+VL1”-scFv (scFv)
scFv: QVQLVQSGAEVKKPGASVKVSCKASDYTFTNYWLGWVRQAPGQGLEWIGHIYPGGGYTNYNEKFKGRVTMTADTSTSTVYMELSSLRSEDTAVYFCARVRSGNDALDFWGQGTLVTVSSGGGGSGGGGSGGGGSEIVLTQSPATLSLSPGERATLSCRASESVDEYGISFMNWYQQKPGQAPRLLIYSASNQGSGIPARFSGSGSGTDFTLTISSLEPEDFAVYYCQQSKEVPWTFGGGTKLEIK
B9: “VH2+VL4”-scFv (scFv)
scFv: QVQLVQSGAEVKKPGASVKVSCKASDYTFTNYWLGWVRQAPGQGLEWIGHIYPGGGYTNYNEKFKGRVTMTADTSTSTVYMELSSLRSEDTAVYFCARVRSGNDALDFWGQGTLVTVSSGGGGSGGGGSGGGGSEIVLTQSPATLSLSPGERATLSCRASESVDEYGISFMNWFQQKPGQAPRLLIYSASNQGSGIPARFSGSGSGTDFTLTISSLEPEDFAMYFCQQSKEVPWTFGGGTKLEIK
B10: “VH3+VL1”-scFv (scFv)
scFv: QVQLVQSGAEVKKPGASVKVSCKASDYTFTNYWLGWVRQAPGQGLEWIGHIYPGGGYTNYNEKFKGRATLTADTSTSTVYMELSSLRSEDTAVYFCARVRSGNDALDFWGQGTLVTVSSGGGGSGGGGSGGGGSEIVLTQSPATLSLSPGERATLSCRASESVDEYGISFMNWYQQKPGQAPRLLIYSASNQGSGIPARFSGSGSGTDFTLTISSLEPEDFAVYYCQQSKEVPWTFGGGTKLEIK
B11: “VH2+VL3”-scFv (scFv)
scFv: QVQLVQSGAEVKKPGASVKVSCKASDYTFTNYWLGWVRQAPGQGLEWIGHIYPGGGYTNYNEKFKGRVTMTADTSTSTVYMELSSLRSEDTAVYFCARVRSGNDALDFWGQGTLVTVSSGGGGSGGGGSGGGGSEIVLTQSPATLSLSPGERATLSCRASESVDEYGISFMNWFQQKPGQAPRLLIYSASNQGSGIPARFSGSGSGTDFTLTISSLEPEDFAVYFCQQSKEVPWTFGGGTKLEIK
B12: “VH3+VL4”-scFv (scFv)
scFv: QVQLVQSGAEVKKPGASVKVSCKASDYTFTNYWLGWVRQAPGQGLEWIGHIYPGGGYTNYNEKFKGRATLTADTSTSTVYMELSSLRSEDTAVYFCARVRSGNDALDFWGQGTLVTVSSGGGGSGGGGSGGGGSEIVLTQSPATLSLSPGERATLSCRASESVDEYGISFMNWFQQKPGQAPRLLIYSASNQGSGIPARFSGSGSGTDFTLTISSLEPEDFAMYFCQQSKEVPWTFGGGTKLEIK
B13: “VH1+VL4”-scFv (scFv)
scFv: QVQLVQSGAEVKKPGASVKVSCKASDYTFTNYWLGWVRQAPGQGLEWMGHIYPGGGYTNYNEKFKGRVTMTRDTSTSTVYMELSSLRSEDTAVYYCARVRSGNDALDFWGQGTLVTVSSGGGGSGGGGSGGGGSEIVLTQSPATLSLSPGERATLSCRASESVDEYGISFMNWFQQKPGQAPRLLIYSASNQGSGIPARFSGSGSGTDFTLTISSLEPEDFAMYFCQQSKEVPWTFGGGTKLEIK
B14: “VH3+VL2”-scFv (scFv)
scFv: QVQLVQSGAEVKKPGASVKVSCKASDYTFTNYWLGWVRQAPGQGLEWIGHIYPGGGYTNYNEKFKGRATLTADTSTSTVYMELSSLRSEDTAVYFCARVRSGNDALDFWGQGTLVTVSSGGGGSGGGGSGGGGSEIVLTQSPATLSLSPGERATLSCRASESVDEYGISFMNWYQQKPGQAPRLLIYSASNQGSGIPARFSGSGSGTDFTLTISSLEPEDFAVYFCQQSKEVPWTFGGGTKLEIK
B15: “VH4+VL2”-scFv (scFv)
scFv: QVQLVQSGAEVKKPGASVKVSCKASDYTFTNYWLGWVRQAPGHGLEWIGHIYPGGGYTNYNEKFKGRATLTADTSTSTVYMELSSLRSEDTAVYFCARVRSGNDALDFWGQGTLVTVSSGGGGSGGGGSGGGGSEIVLTQSPATLSLSPGERATLSCRASESVDEYGISFMNWYQQKPGQAPRLLIYSASNQGSGIPARFSGSGSGTDFTLTISSLEPEDFAVYFCQQSKEVPWTFGGGTKLEIK
B16: “VH2+VL2”-scFv (scFv)
scFv: QVQLVQSGAEVKKPGASVKVSCKASDYTFTNYWLGWVRQAPGQGLEWIGHIYPGGGYTNYNEKFKGRVTMTADTSTSTVYMELSSLRSEDTAVYFCARVRSGNDALDFWGQGTLVTVSSGGGGSGGGGSGGGGSEIVLTQSPATLSLSPGERATLSCRASESVDEYGISFMNWYQQKPGQAPRLLIYSASNQGSGIPARFSGSGSGTDFTLTISSLEPEDFAVYFCQQSKEVPWTFGGGTKLEIK
B17: “VH1+VL1”-scFv (scFv)
scFv: QVQLVQSGAEVKKPGASVKVSCKASDYTFTNYWLGWVRQAPGQGLEWMGHIYPGGGYTNYNEKFKGRVTMTRDTSTSTVYMELSSLRSEDTAVYYCARVRSGNDALDFWGQGTLVTVSSGGGGSGGGGSGGGGSEIVLTQSPATLSLSPGERATLSCRASESVDEYGISFMNWYQQKPGQAPRLLIYSASNQGSGIPARFSGSGSGTDFTLTISSLEPEDFAVYYCQQSKEVPWTFGGGTKLEIK
notes: CHO expression supernatant

As usually defined, the Kd is the equilibrium constant for the complex coming apart. Broadly, the koff is the rate constant with which the complex falls apart. High values mean fast dissociation, low ones slow dissociation. For orientation: kon means the rate constant with which the complex forms. Higher therefore signals fast association.

The first experiment deals with T1, IL-11. In words: phage ELISA on IL-11. In general terms: An ELISA detects its analyte on a solid surface through an enzyme-linked reagent.
In turn, B1 had an ELISA of 2.06.

The next experiment concerns the target T1, IL-11. Kind of experiment: SPR Biacore, scFv captured, IL-11 400 nM. The protocol:
The measure method included the steps of capturing the humanized single-chain antibody at a flow rate of 10 uL/min. […] Finally, the chip was regenerated with 10 mM glycine buffer.
For orientation: Surface plasmon resonance follows binding to a sensor surface in real time, without labels.
Molecule B2 yielded a Kd of 12.3 nM, a koff of 0.000436 s⁻¹ and a kon of 35500 M⁻¹ s⁻¹.
B3 registered a Kd of 17.2 nM, a koff of 0.00084 s⁻¹ and a kon of 48900 M⁻¹ s⁻¹.
The corresponding values for B4 are 11.2 nM, 0.000461 s⁻¹ and 41300 M⁻¹ s⁻¹.
Taken in the same sequence, the figures for B5 were 10 nM, 0.000481 s⁻¹ and 47900 M⁻¹ s⁻¹.
The molecule B6 yielded a Kd of 9.76 nM, a koff of 0.000464 s⁻¹ and a kon of 47600 M⁻¹ s⁻¹.
The corresponding values for B7 are 11.2 nM, 0.000516 s⁻¹ and 46100 M⁻¹ s⁻¹.
The corresponding values for B8 are 16.7 nM, 0.00089 s⁻¹ and 53400 M⁻¹ s⁻¹.
The corresponding values for B9 are 10.8 nM, 0.000528 s⁻¹ and 48800 M⁻¹ s⁻¹.
In turn, B10 gave a Kd of 22.5 nM, a koff of 0.001 s⁻¹ and a kon of 44500 M⁻¹ s⁻¹.
Taken in the same sequence, the figures for B11 were 11.9 nM, 0.000541 s⁻¹ and 45600 M⁻¹ s⁻¹.
The molecule B12 registered a Kd of 13.3 nM, a koff of 0.000556 s⁻¹ and a kon of 41800 M⁻¹ s⁻¹.
For B13, binding was characterised by a dissociation constant (Kd) of 11.7 nM, the koff stood at 0.000387 s⁻¹ and the kon came to 33100 M⁻¹ s⁻¹.
Molecule B14 returned a dissociation constant Kd of 14.6 nM, a koff of 0.00068 s⁻¹ and a kon of 46500 M⁻¹ s⁻¹.
The corresponding values for B15 are 11.1 nM, 0.000614 s⁻¹ and 55200 M⁻¹ s⁻¹.
B16 gave a Kd of 17.8 nM, a koff of 0.000812 s⁻¹ and a kon of 45700 M⁻¹ s⁻¹.
Taken in the same sequence, the figures for B17 were 21.6 nM, 0.000758 s⁻¹ and 35100 M⁻¹ s⁻¹.

The target in another experiment is T1, IL-11. Kind of experiment: flow cytometry of phage clone; cells not given.
On to B1, for which the “Flow (Mean)” value is 2200 mean fluorescence.

These data come from patent US20250002574A1 (SUNSHINE LAKE PHARMA, published 2025).
